This is an account of results in publication PMC4065374.

The experiment deals with glycosylated Aeromonas caviae polar flagellin FlaA, FlaA (+pse) (Aeromonas caviae (endogenous in A. caviae Sch3N and its flaB mutant AAR27)). In words: far-Western, overlay or dot blot; glycosylated and unglycosylated FlaA titrated across an SDS-PAGE gel, transferred to nitrocellulose, probed with a constant concentration of GST-FlaJ; αGST-HRP, densitometry, triplicate blots.

B1: GST-tagged Aeromonas caviae flagellin-specific chaperone FlaJ (GST-FlaJ) (natural protein)
chain: MYKRNIKAYTAGNLAADLATADPHRVIQLMMQGCLERLAQAKGAIERNDMEAKSIAISKAQGLLHGLQDALDMSQGRMAEDLYGLYAYMDERVWDASLNRDTEPLEEVMTLMLTIKSGWDQLPETEKNQGYQMRQQLGEL
For the molecule B1, the fold more GST-FlaJ bound than to equimolar unglycosylated FlaA is 5 fold.
